# Measurements: patent publication US20260224736A1 (Sanofi, published 2026)
# T1: human CD105 (human, UniProt P17813 26-658)
# T1 construct: whole, on cells; The target is presented on primary human HSCs; also called HuCD105; endoglin
# T1 sequence (looked up): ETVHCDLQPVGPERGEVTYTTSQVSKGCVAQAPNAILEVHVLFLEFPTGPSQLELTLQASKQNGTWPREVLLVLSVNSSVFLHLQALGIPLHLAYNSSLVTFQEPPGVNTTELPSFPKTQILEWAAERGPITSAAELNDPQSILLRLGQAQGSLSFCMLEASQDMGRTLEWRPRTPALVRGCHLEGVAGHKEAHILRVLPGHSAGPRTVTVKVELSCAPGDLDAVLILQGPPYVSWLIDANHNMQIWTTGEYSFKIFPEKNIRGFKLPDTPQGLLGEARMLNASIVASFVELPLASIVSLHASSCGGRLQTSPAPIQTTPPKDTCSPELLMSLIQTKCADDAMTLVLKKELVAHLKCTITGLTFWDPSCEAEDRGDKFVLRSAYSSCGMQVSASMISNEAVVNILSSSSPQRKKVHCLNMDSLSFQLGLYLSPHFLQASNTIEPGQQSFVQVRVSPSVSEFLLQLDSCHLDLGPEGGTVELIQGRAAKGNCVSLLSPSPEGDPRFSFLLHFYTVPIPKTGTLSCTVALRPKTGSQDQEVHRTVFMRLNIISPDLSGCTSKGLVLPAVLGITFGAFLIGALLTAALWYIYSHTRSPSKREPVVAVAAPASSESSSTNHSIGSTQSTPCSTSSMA
# B1: anti-HuCD105 Ab3 Fab bDS (Fab, V domains shown)
# VH: EVKLEESGGGLVQPGGSMKLSCAASGFTFSDAWMDWVRQSPEKGLEWVAEIRSKASNHATYYAESVKGRFTISRDDSKSSVYLQMNSLRAEDTGIYYCTRWRRFFDSWGQGTTLTVSS
# VL: QIVLSQSPAILSASPGEKVTMTCRASSSVSYMHWYQQKPGSSPKPWIYATSNLASGVPVRFSGSGSGTSYSLTISRVEAEDAATYYCQQWSSNPLTFGAGTKLELKR
# modifications: C-terminal cysteine in the heavy chain covalently coupled to DSPE-PEG(2k)-maleimide (lipid conjugate inserted into the LNP)
# notes: Tested only as a lipid-Fab conjugate on the surface of LNPs
# B2: anti-HuCD117 Ab2 Fab bDS (Fab, V domains shown)
# VH: EVQLVESGGGLVQPGGSLRLSCAASGFTFSDADMDWVRQAPGKGLEWVGRTRNKAGSYTTEYAASVKGRFTISRDDSKNSLYLQMNSLKTEDTAVYYCAREPKYWIDFDLWGRGTLVTVSS
# VL: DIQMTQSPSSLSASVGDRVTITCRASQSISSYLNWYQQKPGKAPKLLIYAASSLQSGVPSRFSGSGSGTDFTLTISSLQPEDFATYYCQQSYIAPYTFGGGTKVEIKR
# modifications: C-terminal cysteine in the heavy chain covalently coupled to DSPE-PEG(2k)-maleimide (lipid conjugate inserted into the LNP)
# notes: as for B1
# Key:
# human CD105 = target: T1, human CD105; experiment: flow cytometry of primary human HSCs treated with Fab-conjugated KC3 LNPs; DiI fluorescence as measure of LNP binding
# Text: (§1) For conjugation with full-length antibodies, the LNPs were fused with a streptavidin moiety, and the conjugated full-size antibodies were tagged with biotin. Specifically, lysine groups on the streptavidin were reacted with Traut's reagent to covalently attach thiol groups. The thiolated streptavidin was then conjugated to DSPE-PEG(2k)-maleimide via covalent coupling between the maleimide group and the thiol groups attached to the streptavidin. The streptavidin-fused lipid was then reacted with the biotinylated antibody. Finally, the lipid-streptavidin-antibody conjugate was inserted into the LNP by incubation at 60° C. for 1 hour. The LNPs also incorporated a fluorescent lipid dye,′,1′-Dioctadecyl-3,′,3′,3′-Tetramethylindocarbocyanine-5,5′-Disulfonic Acid (DiIC(18)5-DS). The GFP mRNA was used to measure transfection, as the mRNA must enter the cell and escape the endosome to be transcribed into protein, allowing for fluorescence. The DiIC(18)5-DS was used as a measure of LNP targeting because the cells will have DiI fluorescence so long as the LNPs are capable of binding to the HSCs. Therefore, GFP expression provided a measure of LNP transfection while DiI positive events were representative of Fabs that target H—SCs. […] The HSCs were incubated with the LNPs for 24 and 72 hours, after which the GFP fluorescence and DiI fluorescence were measured using flow cytometry.
# human CD117 = target: T2, human CD117 (human, UniProt P10721 26-976); experiment: as above
# T2 construct: whole, on cells; The target is presented on primary human HSCs, either in vitro or engrafted in NSG mice; No recombinant CD117 was used; also called HuCD117; c-kit
# Text: as §1
# T2 sequence (P10721 26-976): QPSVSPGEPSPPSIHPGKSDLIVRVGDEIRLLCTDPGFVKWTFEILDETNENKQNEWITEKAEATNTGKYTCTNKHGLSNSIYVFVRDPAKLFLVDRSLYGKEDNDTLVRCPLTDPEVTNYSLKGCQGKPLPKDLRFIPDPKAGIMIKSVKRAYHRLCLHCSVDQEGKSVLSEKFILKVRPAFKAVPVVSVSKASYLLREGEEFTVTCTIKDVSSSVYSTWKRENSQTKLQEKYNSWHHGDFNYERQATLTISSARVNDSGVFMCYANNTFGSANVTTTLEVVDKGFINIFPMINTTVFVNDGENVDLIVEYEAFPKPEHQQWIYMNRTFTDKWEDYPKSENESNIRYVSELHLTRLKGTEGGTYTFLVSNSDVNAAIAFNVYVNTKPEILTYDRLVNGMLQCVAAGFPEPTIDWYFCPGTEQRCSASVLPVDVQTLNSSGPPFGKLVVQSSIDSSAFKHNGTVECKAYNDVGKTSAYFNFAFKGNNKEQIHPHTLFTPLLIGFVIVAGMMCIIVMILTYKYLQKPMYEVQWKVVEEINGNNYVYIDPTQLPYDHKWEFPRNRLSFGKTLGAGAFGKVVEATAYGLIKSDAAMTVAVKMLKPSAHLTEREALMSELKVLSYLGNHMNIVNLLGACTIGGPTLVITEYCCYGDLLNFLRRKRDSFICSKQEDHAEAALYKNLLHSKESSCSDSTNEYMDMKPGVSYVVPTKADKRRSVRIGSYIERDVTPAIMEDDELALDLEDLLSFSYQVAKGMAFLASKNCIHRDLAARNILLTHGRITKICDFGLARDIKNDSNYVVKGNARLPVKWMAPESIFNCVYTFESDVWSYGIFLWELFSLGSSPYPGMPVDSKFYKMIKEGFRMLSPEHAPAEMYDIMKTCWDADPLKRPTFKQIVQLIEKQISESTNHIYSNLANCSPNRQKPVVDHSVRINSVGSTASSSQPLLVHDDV
Binder,binding result (human CD105),binding result (human CD117)
B1,binds,
B2,,binds
